From patent publication US20240279318A1 (NANJING LEGEND BIOTECH, published 2024)
Substitutions are numbered along the chain they refer to.

B1: AS170036 VL1VH1 (scFv)
scFv: QSALTQPRSVSGSPGQSVTISCAGTSSDVGSENYVSWYQQHPGKAPKLMIYQVNKRASGVPDRFSGSKSGNTASLTISGLQAEDEADYYCASYRSSDHNIVFGGGTKLTVLGGGGSGGGGSGGGGSEVQLVESGGGLVQPGGSLRLSCAASGFTFSSYAMSWVRQAPGKGLEWVSTINSGTGSPYYADSVKGRFTISRDNSKNTLYLQMNSLRAEDTAVYYCAKNFFDGSWFLGPPAMDYWGQGTLVTVSSHHHHHH
notes: Crude scFv from E. coli TG1 supernatant; also called AS170036 VL1VH1 scFv
B2: AS170036 VL1VH1-VLH98V (scFv)
scFv: B1 scFv with H98V
B3: AS170036 VL1VH1-VLH98P (scFv)
scFv: B1 scFv with H98P
B4: AS170036 VL1VH1-VHG108S (scFv)
scFv: B1 scFv with G234S
B5: AS170036 VL1VH1-VLH98Q (scFv)
scFv: B1 scFv with H98Q
B6: AS170036 VL1VH1-VHS57R (scFv)
scFv: B1 scFv with S183R
B7: AS170036 VL1VH1-VLH98A (scFv)
scFv: B1 scFv with H98A
B8: AS170036 VL1VH1-VLH98F (scFv)
scFv: B1 scFv with H98F
B9: AS170036 VL1VH1-VLH98I (scFv)
scFv: B1 scFv with H98I
B10: AS170036 VL1VH1-VHG108M (scFv)
scFv: B1 scFv with G234M
B11: AS170036 VL1VH1-VLH98T (scFv)
scFv: B1 scFv with H98T
B12: AS170036 VL1VH1-VHS57M (scFv)
scFv: B1 scFv with S183M
B13: AS170036 VL1VH1-VHS57Q (scFv)
scFv: B1 scFv with S183Q
B14: AS170036 VL1VH1-VLE32W (scFv)
scFv: B1 scFv with E32W
B15: AS170036 VL1VH1-VHS57H (scFv)
scFv: B1 scFv with S183H
B16: AS170036 VL1VH1-VHG108N (scFv)
scFv: B1 scFv with G234N
B17: AS170036 VL1VH1-VHS57K (scFv)
scFv: B1 scFv with S183K
B18: AS170036 VL1VH1-VHG108E (scFv)
scFv: B1 scFv with G234E
B19: AS167821 sdAb-mIgG2aFc (Fc fusion, not shown: a dimerising Fc or GST)
chain: QVRLVESGGGSVQAGGSLRLSCAASGRTYSTYCMGWFRQAPGKEREGVATIYIGSGRTYYVDSVKGRFTISQDNAKNTLYLQMNNLKPEDTAMYYCTADVDPYESSWSRGLGYWGQGTQVTVSS
notes: i647-labelled for flow cytometry
B20: AS170036 VL1VH1 (scFv)
scFv: B1 scFv
notes: Crude scFv from E. coli TG1 supernatant, captured on the chip; also called AS170036 VL1VH1 scFv
B21: 03-AS170036 VL1VH1-56Y98Q (scFv)
scFv: B1 scFv with H98Q, G182Y
notes: Crude scFv mutein of AS170036 VL1VH1
B22: 22-AS170036 VL1VH1-57H108A (scFv)
scFv: B1 scFv with S183H, G234A
notes: as for B21
B23: 19-AS170036 VL1VH1-56N108A (scFv)
scFv: B1 scFv with G182N, G234A
notes: as for B21
B24: 15-AS170036 VL1VH1-57M98Q (scFv)
scFv: B1 scFv with H98Q, S183M
notes: as for B21
B25: 25-AS170036 VL1VH1-57K108A (scFv)
scFv: B1 scFv with S183K, G234A
notes: as for B21
B26: 16-AS170036 VL1VH1-56Y108A (scFv)
scFv: B1 scFv with G182Y, G234A
notes: as for B21
B27: 27-AS170036 VL1VH1-57K108S (scFv)
scFv: B1 scFv with S183K, G234S
notes: as for B21
B28: 05-AS170036 VL1VH1-56N98I (scFv)
scFv: B1 scFv with H98I, G182N
notes: as for B21
B29: 34-AS170036 VL1VH1-98I108A (scFv)
scFv: B1 scFv with H98I, G234A
notes: as for B21
B30: 10-AS170036 VL1VH1-57K98F (scFv)
scFv: B1 scFv with H98F, S183K
notes: as for B21

target: T1, AFP158/HLA-A*02:01 complex (human); experiment: SPR, fold vs AS170036 VL1VH1
T1 construct: flowed as analyte in SPR
Protocol: (§1) The experiment was carried out as follows. The crude scFv protein were captured onto the sensorchip. Different concentrations (320, 160, 40 nM) of AFP158/HLA-A*02:01 complex flowed over the sensorchip surface, and were allowed to bind the antibody fragment for 100 s followed by injection of the running buffer to allow dissociation of the complex. On-rate (kd) and off-rate (kd) were calculated based on association and dissociation curve, and were used to estimate the equilibrium dissociation constant (KD).

| Affinity increase | Binder |
| --- | --- |
| 1 fold | B1 |
| 3.2 fold | B2 |
| 3.5 fold | B3 |
| 2.8 fold | B4 |
| 3.3 fold | B5 |
| 2.8 fold | B6 |
| 2.3 fold | B7 |
| 3.3 fold | B8 |
| 3.1 fold | B9 |
| 4.7 fold | B10 |
| 2.9 fold | B11 |
| 2.7 fold | B12 |
| 2.4 fold | B13 |
| 2.4 fold | B14 |
| 6.9 fold | B15 |
| 2 fold | B16 |
| 4.4 fold | B17 |
| 4.1 fold | B18 |

target: T1, AFP158/HLA-A*02:01 complex; experiment: SPR, fold vs AS170036 VL1VH1; remark: another data set of the same source
Protocol: as §1
(§2) The crude scFv muteins were then subjected to SPR affinity measurement by the method mentioned above.

| Affinity increase | Binder |
| --- | --- |
| 1 fold | B1 |

target: T1, AFP158/HLA-A*02:01 complex; experiment: SPR, fold vs AS170036 VL1VH1; remark: another data set of the same source
Protocol: as §1, §2

| Affinity increase | Binder |
| --- | --- |
| 1 fold | B1 |

target: T1, AFP158/HLA-A*02:01 complex; experiment: SPR, crude scFv captured, pMHC analyte
Protocol: as §1

| Kd | koff | kon | Binder |
| --- | --- | --- | --- |
| 270 nM | 0.1 s⁻¹ | 380000 M⁻¹ s⁻¹ | B1 |
| 78 nM | 0.018 s⁻¹ | 230000 M⁻¹ s⁻¹ | B2 |
| 70 nM | 0.017 s⁻¹ | 240000 M⁻¹ s⁻¹ | B3 |
| 96 nM | 0.026 s⁻¹ | 270000 M⁻¹ s⁻¹ | B4 |
| 75 nM | 0.016 s⁻¹ | 220000 M⁻¹ s⁻¹ | B5 |
| 88 nM | 0.017 s⁻¹ | 200000 M⁻¹ s⁻¹ | B6 |
| 110 nM | 0.027 s⁻¹ | 260000 M⁻¹ s⁻¹ | B7 |
| 74 nM | 0.033 s⁻¹ | 450000 M⁻¹ s⁻¹ | B8 |
| 78 nM | 0.018 s⁻¹ | 230000 M⁻¹ s⁻¹ | B9 |
| 58 nM | 0.013 s⁻¹ | 220000 M⁻¹ s⁻¹ | B10 |
| 84 nM | 0.025 s⁻¹ | 290000 M⁻¹ s⁻¹ | B11 |
| 90 nM | 0.025 s⁻¹ | 280000 M⁻¹ s⁻¹ | B12 |
| 100 nM | 0.022 s⁻¹ | 210000 M⁻¹ s⁻¹ | B13 |
| 100 nM | 0.016 s⁻¹ | 150000 M⁻¹ s⁻¹ | B14 |
| 35 nM | 0.0061 s⁻¹ | 170000 M⁻¹ s⁻¹ | B15 |
| 140 nM | 0.045 s⁻¹ | 330000 M⁻¹ s⁻¹ | B16 |
| 56 nM | 0.0081 s⁻¹ | 150000 M⁻¹ s⁻¹ | B17 |
| 56 nM | 0.02 s⁻¹ | 350000 M⁻¹ s⁻¹ | B18 |

target: T1, AFP158/HLA-A*02:01 complex; experiment: SPR, crude scFv captured, pMHC analyte; remark: another data set of the same source
Protocol: as §1, §2

| Kd | koff | kon | Binder |
| --- | --- | --- | --- |
| 230 nM | 0.11 s⁻¹ | 490000 M⁻¹ s⁻¹ | B1 |

target: T1, AFP158/HLA-A*02:01 complex; experiment: SPR, crude scFv captured, pMHC analyte; remark: another data set of the same source

| Kd | koff | kon | Binder |
| --- | --- | --- | --- |
| 230 nM | 0.11 s⁻¹ | 490000 M⁻¹ s⁻¹ | B1 |

target: T2, AFP158/HLA-A*02:01 complex (human); experiment: SPR, antibody captured via mIgG2a-Fc, complex as analyte
T2 construct: biotinylated on the BSP by BirA for ELISA and panning; also called biotinylated AFP158/HLA-A*02:01 complex; Bio-AFP158
Protocol: The binding affinity between selected antibodies and AFP158/HLA-A*02:01 complex was determined by surface plasmon resonance (SPR) on a BIAcore T200 instrument (GE Healthcare). The experiment was carried out as follows. The purified sdAb/scFv-mIgG2aFc protein were captured through mIgG2a-Fc onto the sensorchip. […] On-rate (kₐ) and off-rate (kd) were calculated based on association and dissociation curve, and were used to estimate the equilibrium dissociation constant (KD).

| Kd | koff | kon | Binder |
| --- | --- | --- | --- |
| 95 nM | 0.039 s⁻¹ | 410000 M⁻¹ s⁻¹ | B19 |

target: T3, AFP158/HLA-A*02:01 complex (human); experiment: SPR (BIAcore T200), crude scFv captured, complex flowed over
T3 construct: flowed over the chip as analyte; also called AFP158 peptide/HLA-A*02:01 complex
Protocol: as §1
The 84 muteins were then tested for their selectivity. The 12 recombinant AFP158 homologous peptides/HLA-A*02:01 complex were mixed in three groups (group 1: ZNF566 and ARNTL, group 2: CDC14A, PTP4A1, BRCA2 and RCL1, group 3: OR1I1, OR51B6, OR6C1, ATG9A, RP1 and NR2E1). The binding of the 84 antibodies to these complexes were then measured by method described above.

| SPR binding level | Binder |
| --- | --- |
| 196 RU | B20 |
| 738 RU | B21 |
| 571 RU | B22 |
| 526 RU | B23 |
| 554 RU | B24 |
| 554 RU | B25 |
| 601 RU | B26 |
| 627 RU | B27 |
| 564 RU | B28 |
| 559 RU | B29 |
| 614 RU | B30 |
